Experimental findings from patent EP3926342A1 are described below.

Test [1] deals with recombinant human ICAM-1/CD54 (R&D Systems) (human) (UniProt P05362).
The target of test [2] is human rhinovirus strain RV89 (major group RV-A), purified virus (human rhinovirus) (UniProt P07210). In words: fluid phase competition ELISA: RV89 (25 µg/ml) pre-incubated with 50 µg/ml soluble ICAM-1, then added to plate-bound ICAM-1.
Test [3] deals with human rhinovirus strain RV2 (minor group RV-A), purified virus (human rhinovirus) (UniProt P04936). Nature of the test: fluid phase competition ELISA: RV2 (5 µg/ml as printed here) pre-incubated with 50 µg/ml soluble LDLR, then added to plate-bound LDLR. (An ELISA detects its analyte on a solid surface through an enzyme-linked reagent.)
human rhinovirus strain RV2 (minor group RV-A), purified virus (human rhinovirus), sequence (P04936 2-850): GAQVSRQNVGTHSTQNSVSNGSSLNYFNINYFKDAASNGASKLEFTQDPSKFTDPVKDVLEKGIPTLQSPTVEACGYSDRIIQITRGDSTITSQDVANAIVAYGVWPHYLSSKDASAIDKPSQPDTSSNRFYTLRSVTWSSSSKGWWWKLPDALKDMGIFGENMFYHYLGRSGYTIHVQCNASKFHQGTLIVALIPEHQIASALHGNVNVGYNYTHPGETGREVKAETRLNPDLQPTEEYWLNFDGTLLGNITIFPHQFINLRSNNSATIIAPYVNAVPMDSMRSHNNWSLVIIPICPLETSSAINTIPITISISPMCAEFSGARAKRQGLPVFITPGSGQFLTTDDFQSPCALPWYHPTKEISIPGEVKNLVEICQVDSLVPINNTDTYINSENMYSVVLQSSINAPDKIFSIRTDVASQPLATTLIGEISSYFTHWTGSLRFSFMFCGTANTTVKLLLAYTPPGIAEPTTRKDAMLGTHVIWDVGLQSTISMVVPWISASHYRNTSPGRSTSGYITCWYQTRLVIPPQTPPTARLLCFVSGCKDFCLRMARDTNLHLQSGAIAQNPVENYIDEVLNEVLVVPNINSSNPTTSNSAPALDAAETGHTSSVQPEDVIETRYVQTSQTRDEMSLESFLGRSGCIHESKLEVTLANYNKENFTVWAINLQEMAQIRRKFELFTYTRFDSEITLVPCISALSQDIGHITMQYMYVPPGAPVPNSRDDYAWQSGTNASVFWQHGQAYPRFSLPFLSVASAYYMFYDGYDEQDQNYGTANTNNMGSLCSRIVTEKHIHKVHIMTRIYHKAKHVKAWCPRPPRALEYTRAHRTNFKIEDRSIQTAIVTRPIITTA
Test [4] addresses biotinylated RV89 (human rhinovirus) (UniProt P07210).

Where only a bound is given, the exact number is not on record here.

recombinant human ICAM-1/CD54 (R&D Systems) (human), sequence (P05362 28-480 limits assumed): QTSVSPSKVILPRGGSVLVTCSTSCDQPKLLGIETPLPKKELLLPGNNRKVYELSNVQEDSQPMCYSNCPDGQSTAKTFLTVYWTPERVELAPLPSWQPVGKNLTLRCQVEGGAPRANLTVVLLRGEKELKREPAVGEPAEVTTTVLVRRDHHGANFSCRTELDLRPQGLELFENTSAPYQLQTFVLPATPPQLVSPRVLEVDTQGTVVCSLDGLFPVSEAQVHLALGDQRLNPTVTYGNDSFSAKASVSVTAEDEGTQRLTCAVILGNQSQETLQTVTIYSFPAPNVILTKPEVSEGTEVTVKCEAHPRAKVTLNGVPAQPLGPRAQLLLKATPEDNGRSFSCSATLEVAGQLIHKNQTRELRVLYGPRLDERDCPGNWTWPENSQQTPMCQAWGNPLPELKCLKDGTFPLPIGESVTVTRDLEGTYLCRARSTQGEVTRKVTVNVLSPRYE
recombinant human ICAM-1/CD54 (R&D Systems), sequence (P05362 28-480 limits assumed): as above
biotinylated RV89 (human rhinovirus), sequence (P07210 2-866): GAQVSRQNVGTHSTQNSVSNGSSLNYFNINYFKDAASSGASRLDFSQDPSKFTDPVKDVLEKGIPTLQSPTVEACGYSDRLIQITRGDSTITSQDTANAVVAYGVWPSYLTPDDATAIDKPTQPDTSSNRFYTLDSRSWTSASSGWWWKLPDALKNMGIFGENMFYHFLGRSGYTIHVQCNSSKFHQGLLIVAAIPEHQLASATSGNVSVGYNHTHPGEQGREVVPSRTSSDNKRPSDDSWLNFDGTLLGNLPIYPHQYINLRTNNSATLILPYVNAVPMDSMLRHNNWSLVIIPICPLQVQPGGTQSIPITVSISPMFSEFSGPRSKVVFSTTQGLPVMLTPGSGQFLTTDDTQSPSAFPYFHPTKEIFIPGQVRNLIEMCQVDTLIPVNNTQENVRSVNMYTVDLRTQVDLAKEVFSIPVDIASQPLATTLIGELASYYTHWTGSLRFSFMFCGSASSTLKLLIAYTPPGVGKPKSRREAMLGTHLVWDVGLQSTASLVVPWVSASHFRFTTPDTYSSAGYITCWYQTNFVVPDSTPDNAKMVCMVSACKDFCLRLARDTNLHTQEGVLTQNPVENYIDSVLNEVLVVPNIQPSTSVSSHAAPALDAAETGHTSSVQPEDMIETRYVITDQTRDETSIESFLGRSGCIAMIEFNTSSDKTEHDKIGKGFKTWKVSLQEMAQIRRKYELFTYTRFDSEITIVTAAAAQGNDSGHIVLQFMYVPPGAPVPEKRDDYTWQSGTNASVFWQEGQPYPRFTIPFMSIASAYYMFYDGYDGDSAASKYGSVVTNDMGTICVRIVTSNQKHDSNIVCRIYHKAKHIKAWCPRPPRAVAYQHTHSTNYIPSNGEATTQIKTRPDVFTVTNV
human rhinovirus strain RV89 (major group RV-A), purified virus (human rhinovirus), sequence (P07210 2-866): as above

“biotinylated RV89 (from UniProt P07210 2-866)”: in test [1], the lowest virus concentration at which binding to ICAM-1 was detected worked out at 6.25 µg/mL. Consider “human rhinovirus strain RV89 (major group RV-A), purified virus (from UniProt P07210 2-866)”, for which, in test [1], the lowest virus concentration at which binding to ICAM-1 was detected was 6.25 µg/mL. Take “recombinant human ICAM-1/CD54 (R&D Systems) (from UniProt P05362 28-480) (receptor)”: the percent inhibition of RV89 binding to plate-bound ICAM-1 in test [2] was > 95%.

Consider “recombinant human LDLR (R&D Systems) (from UniProt P01130 22-788) (receptor)”, for which the percent inhibition of RV2 binding to plate-bound LDLR in test [3] was > 60%. For the substance “ultrasensitive Streptavidin-Peroxidase Polymer (Merck) (from UniProt P22629 37-163)”, in test [4], the lowest coated concentration of biotinylated RV89 that was detected amounted to 0.625 µg/mL.
